According to PMC4860004:

Biological target: IRΔβ (human insulin receptor ectodomain construct, (αβ)2 homodimer) (human) (UniProt P06213)
Assay: crystal structure

IRΔβ (human insulin receptor ectodomain construct, (αβ)2 homodimer) (from UniProt P06213-2 28-1370)
stoichiometry N: 2
